These results are taken from paper PMC9402538, “Rational design of a sensitivity-enhanced tracer for discovering efficient APC–Asef inhibitors” (Nature Communications, 2022).

T1: APC (303-739) (UniProt P25054 303-739)
T1 construct: adenomatous polyposis coli (APC), residues 303-739; pET28a construct; also called APC WT; adenomatous polyposis coli; source: E. coli BL21 (DE3), purified (Ni-NTA)
T1 sequence (looked up): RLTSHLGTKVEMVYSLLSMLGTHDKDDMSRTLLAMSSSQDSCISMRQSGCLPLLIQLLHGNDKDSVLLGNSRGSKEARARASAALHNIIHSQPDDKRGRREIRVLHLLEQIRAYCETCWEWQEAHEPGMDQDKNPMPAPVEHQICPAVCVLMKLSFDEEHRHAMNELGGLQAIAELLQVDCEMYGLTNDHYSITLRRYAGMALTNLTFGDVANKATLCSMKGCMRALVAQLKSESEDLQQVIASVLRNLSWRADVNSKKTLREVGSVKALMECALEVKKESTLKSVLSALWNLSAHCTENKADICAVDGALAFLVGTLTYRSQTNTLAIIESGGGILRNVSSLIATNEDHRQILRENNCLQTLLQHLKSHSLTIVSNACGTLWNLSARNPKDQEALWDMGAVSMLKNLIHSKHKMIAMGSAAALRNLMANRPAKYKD

T2: APC (303–739) (UniProt P25054 303-739)
T2 construct: adenomatous polyposis coli (APC), residues 303–739; The methods name this construct for FP and SPR; the ITC methods say only 'APC protein'; Plasmid was a gift (Dr. Geng Wu); pET28a; also called APC WT; adenomatous polyposis coli; source: E. coli BL21 (DE3), purified (Ni-NTA)
T2 sequence (looked up): T1 sequence (looked up)

B1: APC W593A, N641A (domain or fragment)
chain: T1 sequence (looked up) with W291A, N339A
B2: tracer 7 (peptide)
peptide: Cbz-AGESLYEK(FITC)-NH2
notes: designed from the Asef hot spot 181-187; the systematic name on D1:p12 gives (R) at the lysine carbon; source: synthetic peptide (general procedure B; FITC-labeled tracer peptides obtained from Changzhou Kanglong Biotech)
B3: MAI-466 (peptide)
chain: 2Furoyl-AGESLY[Phe(4-tBu)]-NH2
SMILES: CC(C)C[C@H](NC(=O)[C@H](CO)NC(=O)[C@H](CCC(=O)O)NC(=O)CNC(=O)[C@H](C)NC(=O)c1ccco1)C(=O)N[C@@H](Cc1ccc(O)cc1)C(=O)N[C@@H](Cc1ccc(C(C)(C)C)cc1)C(N)=O
B4: MAI-457 (peptide)
chain: Bz-AGESLY[Bpa]-NH2
SMILES: CC(C)C[C@H](NC(=O)[C@H](CO)NC(=O)[C@H](CCC(=O)O)NC(=O)CNC(=O)[C@H](C)NC(=O)c1ccccc1)C(=O)N[C@@H](Cc1ccc(O)cc1)C(=O)N[C@@H](Cc1ccc(C(=O)c2ccccc2)cc1)C(N)=O
B5: MAI-461 (peptide)
chain: Bz-AGES[Ala(cPent)]YE-NH2
SMILES: C[C@H](NC(=O)c1ccccc1)C(=O)NCC(=O)N[C@@H](CCC(=O)O)C(=O)N[C@@H](CO)C(=O)N[C@@H](CC1CCCC1)C(=O)N[C@@H](Cc1ccc(O)cc1)C(=O)N[C@@H](CCC(=O)O)C(N)=O
B6: tracer 12 (peptide)
peptide: Cbz-AGESLYEGGGGGK(FITC′)-NH2
notes: source: synthetic peptide (general procedure B; FITC-labeled tracer peptides obtained from Changzhou Kanglong Biotech)
B7: tracer 11 (peptide)
peptide: Cbz-AGESLYEGGGGGGGK(FITC′)-NH2
notes: as for B6
B8: tracer 9 (peptide)
peptide: Cbz-AGESLYENELK(FITC′)-NH2
notes: as for B6
B9: tracer 13 (peptide)
peptide: Cbz-AGESLYEGGGK(FITC′)-NH2
notes: as for B6
B10: tracer 10 (peptide)
peptide: Cbz-AGESLYENK(FITC′)-NH2
notes: as for B6
B11: tracer 14 (peptide)
peptide: Cbz-AGESLYEGK(FITC′)-NH2
notes: as for B6
B12: tracer 8 (peptide)
peptide: Cbz-AGESLYENELISK(FITC′)-NH2
notes: as for B6
B13: tracer 1 (Ac–GGGGEQLAINELISDGK[FITC]–NH2) (peptide)
peptide: Ac-GGGGEQLAINELISDGK(FITC)-NH2
notes: stretch of Asef (Rho guanine nucleotide exchange factor 4); lysine that carries FITC; source: synthetic peptide, bought: Changzhou Kanglong Biotech Ltd
B14: tracer 7 (Z–AGESLYEK[FITC]–NH2) (peptide)
peptide: Cbz-AGESLYEK(FITC)-NH2
notes: tracer 6 with a shortened linker; source: synthetic peptide, bought: Changzhou Kanglong Biotech Ltd
B15: tracer 2 (Ac–GGAGEALAINELISDGK[FITC]–NH2) (peptide)
peptide: Ac-GGAGEALAINELISDGK(FITC′)-NH2
notes: designed from tracer 1 (Asef stretch) by changing residues of the hot spot GGEQLAI; source: synthetic peptide, bought: Changzhou Kanglong Biotech Ltd
B16: tracer 3 (Ac–GGAGESLYENELISDGK[FITC]–NH2) (peptide)
peptide: Ac-GGAGESLYENELISDGK(FITC′)-NH2
notes: as for B15
B17: tracer 5 (Ac–EGAGESLYENELISDGK[FITC]–NH2) (peptide)
peptide: Ac-EGAGESLYENELISDGK(FITC′)-NH2
notes: tracer 3 with its first residue replaced; source: synthetic peptide, bought: Changzhou Kanglong Biotech Ltd
B18: tracer 4 (Ac–YGAGESLYENELISDGK[FITC]–NH2) (peptide)
peptide: Ac-YGAGESLYENELISDGK(FITC′)-NH2
notes: as for B17
B19: tracer 6 (Z–AGESLYENELISDGK[FITC]–NH2) (peptide)
peptide: Cbz-AGESLYENELISDGK(FITC′)-NH2
notes: tracer 3 with its first two residues GG replaced by a benzyloxycarbonyl (Z) group; source: synthetic peptide, bought: Changzhou Kanglong Biotech Ltd

Substitutions are numbered along the chain they refer to. Numbers in names are those of the source. Primed or numbered codes have the meaning given here. [ ]: non-standard residue; d: D form. The star is where a group is joined. FITC = O=C1OC2(c3ccc(O)cc3Oc3cc(O)ccc32)c2ccc(NC(=S)*)cc21; Phe(4-tBu) = CC(C)(C)c1ccc(C[C@H](N)C(=O)O)cc1; Bpa = N[C@@H](Cc1ccc(C(=O)c2ccccc2)cc1)C(=O)O; Ala(cPent) = N[C@@H](CC1CCCC1)C(=O)O; FITC′ = fluorescein isothiocyanate; hLeu = CC(C)CC[C@H](N)C(=O)O; 2Furoyl = O=C(c1ccco1)*; Cbz = O=C(OCc1ccccc1)*; Bz = O=C(c1ccccc1)*

One experiment concerns the target T3, MAI-516 (N-terminal 4-methoxy-phenyl group (R^1)).
T3 construct: peptidomimetic; the text names its residues A181, G182, E183, S184, L185 and Y186 (Asef numbering); source: synthetic peptide (Supplementary Methods)
As to the kind of experiment: ITC; MicroCal ITC200, 30 °C; 50 mM HEPES pH 7.5, 300 mM NaCl, 1 mM EDTA; APC in the cell at 10–20 μM, peptide injected at 100–200 μM; single-site model. The conditions noted are these: both partners purified. (In general: Isothermal titration calorimetry measures the heat released or taken up as one component is titrated into another.)
Consider B1, for which the affinity, expressed as Kd, was 860 nM.

Another experiment addresses T1, APC (303-739). The experiment can be described thus: ITC; APC protein in the cell at 10-20 μM, peptide injected at 100-200 μM; 50 mM HEPES pH 7.5, 300 mM NaCl, 1 mM EDTA; 30 °C; single-site model. The conditions noted are these: both partners purified.
As to B2, the “stoichiometry N” value turned out to be 1.6.

The next experiment deals with T1, APC (303-739). As to the kind of experiment: fluorescence polarisation; competition with tracer 7: 25 nM APC (303-739), serial dilution of peptide, 20 nM tracer 7; 50 mM HEPES pH 7.5, 300 mM NaCl, 1 mM EDTA, 1 mM DTT; room temperature. The conditions noted are these: both partners purified.
Take Cbz-AGES[hLeu]YE-NH2 [MAI-426]: the IC50 is 1200 ± 60 nM.

{oxazole‑5‑carbonyl}-AGESLYE-NH2 [MAI-460] displayed an IC50 of 550 ± 9 nM. On the same count and under the same terms, in the case of Bz-AGESLY[dE]-NH2 [MAI-465] it was 1000 ± 30 nM; in that of B3, 940 ± 30 nM. The molecule B4 displayed a half-maximal inhibitory concentration (IC50) of 92 ± 3 nM. Compared with the last molecule, the IC50 is about 10-fold lower.

Molecule B5 came in with an IC50 of 80 ± 3 nM. {pyrimidine‑4‑carbonyl}-AGESLYE-NH2 [MAI-464]: the IC50 stood at 220 ± 10 nM. Same read-out and setting: next, {2‑(methylthio)pyrimidine‑4‑carbonyl}-AGESLYE-NH2 [MAI-456]: 990 ± 60 nM. For {oxazole‑2‑carbonyl}-AGESLYE-NH2 [MAI-455], the concentration for half-maximal inhibition (IC50) was found to be 860 ± 30 nM. On the same count and under the same terms, in the case of Bz-AGESLYE-NH2 [MAI-467] it was 320 ± 7 nM; in that of {2‑chloropyrimidine‑4‑carbonyl}-AGESLYE-NH2 [MAI-459], 840 ± 30 nM. The same measure, in the same setting: next, {benzofuran‑2‑carbonyl}-AGESLYE-NH2 [MAI-453]: 260 ± 10 nM; {morpholine‑4‑carbonyl}-AGESLYE-NH2 [MAI-451]: 270 ± 5 nM.

For the molecule {furan‑2‑carbonyl}-AGESLY[Bpa]-NH2 [MAI-454], the IC50 stood at 280 ± 10 nM.

For a further experiment, the target named is T1, APC (303-739). The experiment can be described thus: fluorescence polarisation; competition with tracer 1: APC (303-739) 1.0 μM and tracer 1 20 nM (Table 2), serial dilution of peptide. The conditions noted are these: both partners purified. Background: In fluorescence polarisation assays a small probe gives low polarisation when free and higher when bound to something large.
Turning to Cbz-AGES[hLeu]YE-NH2 [MAI-426], the IC50 was found to be 840 ± 190 nM. Still for that read-out and setting: in the case of {oxazole‑5‑carbonyl}-AGESLYE-NH2 [MAI-460] it was 620 ± 190 nM. The same measure, in the same setting: next, Bz-AGESLY[dE]-NH2 [MAI-465]: 750 ± 150 nM; B3: 810 ± 200 nM.

As for B4, the IC50 turned out to be 590 ± 200 nM. Same read-out and setting: in the case of B5 it was 630 ± 200 nM; in that of {pyrimidine‑4‑carbonyl}-AGESLYE-NH2 [MAI-464], 740 ± 160 nM. The same measure, in the same setting: next, {2‑(methylthio)pyrimidine‑4‑carbonyl}-AGESLYE-NH2 [MAI-456]: 570 ± 120 nM; {oxazole‑2‑carbonyl}-AGESLYE-NH2 [MAI-455]: 530 ± 120 nM. On the same count and under the same terms, next, Bz-AGESLYE-NH2 [MAI-467]: 820 ± 300 nM; {2‑chloropyrimidine‑4‑carbonyl}-AGESLYE-NH2 [MAI-459]: 600 ± 120 nM. In turn, {benzofuran‑2‑carbonyl}-AGESLYE-NH2 [MAI-453] registered an IC50 of 460 ± 140 nM. Consider {morpholine‑4‑carbonyl}-AGESLYE-NH2 [MAI-451], for which the IC50 was 390 ± 120 nM. The same measure, in the same setting: in the case of {furan‑2‑carbonyl}-AGESLY[Bpa]-NH2 [MAI-454] it was 480 ± 150 nM.

The target in the next experiment is T1, APC (303-739). The experiment can be described thus: fluorescence polarisation; direct binding: tracer fixed at 20 nM, range of concentrations of APC (303-739), read after 1.5 h; EC50 by nonlinear regression. The following applies: both partners purified.
B6 came in with an EC50 of 51 nM. Same read-out and setting: in the case of B7 it was 53 nM; in that of B8, 47 nM.

In turn, B9 returned an EC50 of 48 nM. In turn, B10 returned an EC50 of 52 nM. The same measure, in the same setting: next, B11: 50 nM; B12: 41 nM.

The target of the next experiment is T2, APC (303–739). As to the kind of experiment: ITC; MicroCal ITC200, 30 °C; 50 mM HEPES pH 7.5, 300 mM NaCl, 1 mM EDTA; APC in the cell at 10–20 μM, peptide injected at 100–200 μM; single-site model. The following applies: both partners purified.
B13 came in with a Kd of 580 nM.

For the molecule B14, the Kd is 78 nM. This Kd lies about 7.4-fold lower than the previous one.

The target in a further experiment is T2, APC (303–739). As to the kind of experiment: fluorescence polarisation; direct binding: tracer fixed at 20 nM, a range of concentrations of APC (303–739), read after 1.5 h; EC50 by nonlinear regression. The following applies: both partners purified.
In turn, B13 came in with an EC50 of 540 nM. The same measure, in the same setting: in the case of B14 it was 16 nM. Still for that read-out and setting: next, B15: 180 nM; B16: 68 nM; B17: 46 nM.

B18 returned an EC50 of 48 nM. In the case of B19, the EC50 came to 40 nM. The EC50 values of the last two molecules are within 1.5-fold of each other.

As a reminder, the Kd is the constant that tells how readily two partners part at equilibrium. What is called stoichiometry N is the number of molecules, sites or subunits per partner or assembly. A word on the IC50: it is the concentration that gives 50% inhibition. Broadly, the EC50 is the concentration needed to bring the measured effect to its halfway point. High values mean lower potency in that assay, low ones higher potency in that assay.
